# Measurements: PMC4869175, “Evidence that phytochrome functions as a protein kinase in plant light signalling” (Nature Communications, 2016)
# T1: PAS-GAF-PHY photosensory core of AsphyA (66-610aa) (Avena sativa, UniProt P06593 66-610, phycocyanobilin chromophore assembled (chromophore-binding site C322))
# T1 construct: Avena sativa phytochrome A, residues 66-610 (PAS-GAF-PHY photosensory core); also called the photosensory core; source: phycocyanobilin added in vitro
# T1 sequence (looked up): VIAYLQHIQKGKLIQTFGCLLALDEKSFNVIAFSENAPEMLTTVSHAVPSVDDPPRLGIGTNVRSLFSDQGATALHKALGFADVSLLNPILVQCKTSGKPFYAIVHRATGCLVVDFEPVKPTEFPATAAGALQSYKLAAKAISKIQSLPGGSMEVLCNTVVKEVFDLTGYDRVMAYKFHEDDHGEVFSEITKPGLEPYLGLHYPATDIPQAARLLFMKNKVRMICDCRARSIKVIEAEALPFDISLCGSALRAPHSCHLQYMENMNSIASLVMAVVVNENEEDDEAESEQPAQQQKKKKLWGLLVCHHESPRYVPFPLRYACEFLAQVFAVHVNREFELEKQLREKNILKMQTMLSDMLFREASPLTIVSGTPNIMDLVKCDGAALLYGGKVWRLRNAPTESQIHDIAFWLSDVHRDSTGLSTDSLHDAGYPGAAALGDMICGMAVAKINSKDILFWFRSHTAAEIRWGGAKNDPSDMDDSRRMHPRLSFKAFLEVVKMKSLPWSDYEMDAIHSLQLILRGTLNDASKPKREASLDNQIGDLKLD
# B1: GST/strep-fused PIF3 (natural protein, UniProt O80536 1-524, looked up)
# chain: MPLFELFRLTKAKLESAQDRNPSPPVDEVVELVWENGQISTQSQSSRSRNIPPPQANSSRAREIGNGSKTTMVDEIPMSVPSLMTGLSQDDDFVPWLNHHPSLDGYCSDFLRDVSSPVTVNEQESDMAVNQTAFPLFQRRKDGNESAPAASSSQYNGFQSHSLYGSDRARDLPSQQTNPDRFTQTQEPLITSNKPSLVNFSHFLRPATFAKTTNNNLHDTKEKSPQSPPNVFQTRVLGAKDSEDKVLNESVASATPKDNQKACLISEDSCRKDQESEKAVVCSSVGSGNSLDGPSESPSLSLKRKHSNIQDIDCHSEDVEEESGDGRKEAGPSRTGLGSKRSRSAEVHNLSERRRRDRINEKMRALQELIPNCNKVDKASMLDEAIEYLKSLQLQVQIMSMASGYYLPPAVMFPPGMGHYPAAAAAMAMGMGMPYAMGLPDLSRGGSSVNHGPQFQVSGMQQQPVAMGIPRVSGGGIFAGSSTIGNGSTRDLSGSKDQTTTNNNSNLKPIKRKQGSSDQFCGSS
# notes: Probably Arabidopsis PIF3, as PIF1 and PIF4 are called Arabidopsis; not shown: GST, N-terminal, kept
# Target: T1, PAS-GAF-PHY photosensory core of AsphyA …
# Test: pull-down; GST/strep-fused interacting protein (1.0 μg) held on glutathione resin, phytochrome (1.0 μg) in solution, Pr and Pfr forms both tested; 60 min at 4 °C in pull-down buffer (100 mM Tris-HCl pH 7.8, 1 mM EDTA, 150 mM NaCl, 100 μg/ml BSA); western blot with oat22 and anti-GST
# Details: both partners purified
binder,measurement,value
B1,binding result,binds
